Measurements reported in patent publication US12606635B2, “Glypican-2-binding moieties, chimeric antigen receptors and uses thereof” (Nanjing Legend Biotech Co., Ltd., priority 2020, dated 2026).

What was measured:
Format in all cases: cell-based, human
IMR-32 = assay: IFNγ release in co-culture with IMR-32; details: Example 7, co-culture with IMR-32, FIG. 8D-8F
Source text: (§1) In addition to the cytotoxicity data above, supernatants from the in vitro co-culture assays were also collected to assess CAR T cells-induced cytokine release, e.g., release of interferon gamma (i.e., IFNγ), as another indicator of cytotoxicity, was quantified using a HTRF human IFNγ AlphaLISA kit (Perkin Elmer, #62HIFNGPEH) per manufacturer's instruction. […] No significant cytokine release were detected against GPC2-negative cell line A-431.
(§2) Supernatants from the in vitro co-culture assays were collected to assess CAR T cells-induced cytokine release, e.g., interferon gamma (i.e., IFNγ) release as described in Example 6. […] IFNγ was not induced in GPC2-negative A-431 cells. […] Cytokine release data was consistent with the in vitro cytotoxicity data.

SH-SY5Y [1] = assay: IFNγ release in co-culture with SH-SY5Y
Source text: as §1, §2

SH-SY5Y [2] = assay: Serial challenge assay, CAR Ts with different co-stimulatory domains; details: for CAR positive T cells percentage: serial SH-SY5Y challenge, FIG. 14B
Source text: To evaluate the persistence of GPC2 CAR T cells, exemplary CAR T cells were selected and tested in the serial challenge assay. Briefly, 4×10^5 SH-SY5Y cells and 1.33×10^5 CART cells transduced with GPC2-BBz, GPC2-CD28z, GPC2-CD27z, GPC2-CD2z, GPC2-ICOSz or GPC2-OX40z lentiviral vectors were co-cultured in 12 well plates using fresh growth medium without IL-2 (E:T ratio=1:3). Cells were harvested after three days co-culture and samples were taken for cell counting using AOPI and T cell quantified by FACs. CAR T cells were replated with fresh SH-SY5Y cells at a 1:2 E:T ratio in growth medium without IL-2 to start the next round of tumor co-culture. Samples were taken for cell counting and T cell quantification at the end of each challenge every three days. GPC2-BBz served as a positive control while the untransduced T cell (UnT) was used as a negative control.

B1: CAS72052VH5-BBz: humanized VHH anti-GPC2 CAR (4-1BB, CD3ζ), SEQ ID NO: 224; tested as CAR T cells (protein)
chain: MALPVTALLLPLALLLHAARPQVQLVESGGGVVQPGGSLRLSCAVSGFRYASYCMGWFRQAPGKGLEGVAAIHSDGIIRYAESVKGRFTISKDNSKNTLYLQMNSLRAEDTAVYYCAAGAYCGADAILTLYDYAFWGQGTLVTVSSTTTPAPRPPTPAPTIASQPLSLRPEACRPAAGGAVHTRGLDFACDIYIWAPLAGTCGVLLLSLVITLYCKRGRKKLLYIFKQPFMRPVQTTQEEDGCSCRFPEEEEGGCELRVKFSRSADAPAYKQGQNQLYNELNLGRREEYDVLDKRRGRDPEMGGKPRRKNPQEGLYNELQKDKMAEAYSEIGMKGERRRGKGHDGLYQGLSTATKDTYDALHMQALPPR
modifications: expressed in CAR T cells; CAS72052VH5-BBz
- IFNγ release (IMR-32): high levels of IFNγ
- IFNγ release (SH-SY5Y [1]; Example 7, co-culture with SH-SY5Y, FIG. 8D-8F): high levels of IFNγ

B2: GPC2-CD28z: SEQ ID NO: 248, GPC2 CAR T comprised CD28 and CD3 ζ intracellular signaling domains (protein)
chain: MALPVTALLLPLALLLHAARPEVQLVESGGGLVQPGGSLRLSCAISEFTYKNTCVGWFRQAPGKGREGVAAIDSDGNTNYVDSVKGRFTISQDNSKNTVYLQMNSLRAEDTAMYYCAAGAYCGRLLLWIGNYAYWGQGTLVTVSSIEVMYPPPYLDNEKSNGTIIHVKGKHLCPSPLFPGPSKPFWVLVVVGGVLACYSLLVTVAFIIFWVRSKRSRLLHSDYMNMTPRRPGPTRKHYQPYAPPRDFAAYRSRVKFSRSADAPAYKQGQNQLYNELNLGRREEYDVLDKRRGRDPEMGGKPRRKNPQEGLYNELQKDKMAEAYSEIGMKGERRRGKGHDGLYQGLSTATKDTYDALHMQALPPR
modifications: expressed in CAR T cells; GPC2-CD28z
- long term persistence and CAR T cells expansion (SH-SY5Y [2]; serial SH-SY5Y challenge without IL-2, FIG. 14A and 14C): comparable level of long term persistence and CAR T cells expansion
- CAR positive T cells percentage (SH-SY5Y [2]): expanded and reaching a peak level
- IFNγ production against SH-SY5Y (SH-SY5Y [1]; GPC2 CAR Ts with different co-stimulatory domains, FIG. 13B): higher level of IFNγ production

B3: GPC2-CD27z: SEQ ID NO: 249, GPC2 CAR T comprised CD27 and CD3 ζ intracellular signaling domains (protein)
chain: MALPVTALLLPLALLLHAARPEVQLVESGGGLVQPGGSLRLSCAISEFTYKNTCVGWFRQAPGKGREGVAAIDSDGNTNYVDSVKGRFTISQDNSKNTVYLQMNSLRAEDTAMYYCAAGAYCGRLLLWIGNYAYWGQGTLVTVSSTTTPAPRPPTPAPTIASQPLSLRPEACRPAAGGAVHTRGLDFACDILVIFSGMFLVFTLAGALFLHQRRKYRSNKGESPVEPAEPCHYSCPREEEGSTIPIQEDYRKPEPACSPRVKFSRSADAPAYKQGQNQLYNELNLGRREEYDVLDKRRGRDPEMGGKPRRKNPQEGLYNELQKDKMAEAYSEIGMKGERRRGKGHDGLYQGLSTATKDTYDALHMQALPPR
modifications: expressed in CAR T cells; GPC2-CD27z
- CAR positive T cells percentage (SH-SY5Y [2]): gradual decline

B4: GPC2-CD2z: SEQ ID NO:251, GPC2 CAR T comprised CD2 and CD3 ζ intracellular signaling domains (protein)
chain: MALPVTALLLPLALLLHAARPEVQLVESGGGLVQPGGSLRLSCAISEFTYKNTCVGWFRQAPGKGREGVAAIDSDGNTNYVDSVKGRFTISQDNSKNTVYLQMNSLRAEDTAMYYCAAGAYCGRLLLWIGNYAYWGQGTLVTVSSTTTPAPRPPTPAPTIASQPLSLRPEACRPAAGGAVHTRGLDFACDIYLIIGICGGGSLLMVFVALLVFYITKRKKQRSRRNDEELETRAHRVATEERGRKPHQIPASTPQNPATSQHPPPPPGHRSQAPSHRPPPPGHRVQHQPQKRPPAPSGTQVHQQKGPPLPRPRVQPKPPHGAAENSLSPSSNRVKFSRSADAPAYKQGQNQLYNELNLGRREEYDVLDKRRGRDPEMGGKPRRKNPQEGLYNELQKDKMAEAYSEIGMKGERRRGKGHDGLYQGLSTATKDTYDALHMQALPPR
modifications: expressed in CAR T cells; GPC2-CD2z
- CAR positive T cells percentage (SH-SY5Y [2]): gradual decline

B5: GPC2-ICOSz: SEQ ID NO:250, GPC2 CAR T comprised ICOS and CD3 ζ intracellular signaling domains (protein)
chain: MALPVTALLLPLALLLHAARPEVQLVESGGGLVQPGGSLRLSCAISEFTYKNTCVGWFRQAPGKGREGVAAIDSDGNTNYVDSVKGRFTISQDNSKNTVYLQMNSLRAEDTAMYYCAAGAYCGRLLLWIGNYAYWGQGTLVTVSSTTTPAPRPPTPAPTIASQPLSLRPEACRPAAGGAVHTRGLDFACDFWLPIGCAAFVVVCILGCILICWLTKKKYSSSVHDPNGEYMFMRAVNTAKKSRLTDVTLRVKFSRSADAPAYKQGQNQLYNELNLGRREEYDVLDKRRGRDPEMGGKPRRKNPQEGLYNELQKDKMAEAYSEIGMKGERRRGKGHDGLYQGLSTATKDTYDALHMQALPPR
modifications: expressed in CAR T cells; GPC2-ICOSz
- CAR positive T cells percentage (SH-SY5Y [2]): gradual decline

B6: GPC2-OX40z: SEQ ID NO:252, GPC2 CAR T comprised OX40 and CD3 ζ intracellular signaling domains (protein)
chain: MALPVTALLLPLALLLHAARPEVQLVESGGGLVQPGGSLRLSCAISEFTYKNTCVGWFRQAPGKGREGVAAIDSDGNTNYVDSVKGRFTISQDNSKNTVYLQMNSLRAEDTAMYYCAAGAYCGRLLLWIGNYAYWGQGTLVTVSSTTTPAPRPPTPAPTIASQPLSLRPEACRPAAGGAVHTRGLDFACDVAAILGLGLVLGLLGPLAILLALYLLRRDQRLPPDAHKPPGGGSFRTPIQEEQADAHSTLAKIRVKFSRSADAPAYKQGQNQLYNELNLGRREEYDVLDKRRGRDPEMGGKPRRKNPQEGLYNELQKDKMAEAYSEIGMKGERRRGKGHDGLYQGLSTATKDTYDALHMQALPPR
modifications: expressed in CAR T cells; GPC2-OX40z
- CAR positive T cells percentage (SH-SY5Y [2]): gradual decline
